From patent publication US20260201039A1 (CENTESSA PHARMACEUTICALS UK, published 2026) come the findings set out here.

As usually defined, the Kd is the equilibrium constant for the complex coming apart. A word on the koff: it is the first-order rate constant of dissociation. The term kon denotes the second-order rate constant of association.

Assay [1] has as its target T1, human/cyno recombinant CD28 protein (human (printed as human/cyno), UniProt P10747 19-152).
T1 construct: Bought recombinant protein; also called human recombinant CD28; human/cyno CD28
As to the kind of experiment: ELISA on coated huCD28, corrected absorbance (A450-570 nm). The protocol: (§1) For ELISA binding assays, 384 well or 96 well plates were coated with 1 ug/ml and incubated overnight at 4° C., protected from light. Plates were washed twice with PBS/0.05% Tween 20 before blocking with block buffer (3% milk protein in PBS) for 1 hour at room temperature. Next, test agent or controls were loaded and incubated for 1 hour at room temperature. Plates were then washed three times with PBS/0.05% Tween 20. Finally, HRP conjugated secondary antibody, diluted 1/5,000 in block buffer, was added and incubated for 1 hour at room temperature. Plates were again washed three times with PBS/0.05% Tween before addition of TMB substrate and incubation for 6 minutes at room temperature. Subsequently, the reaction was stopped with stop solution. Absorbance was read at 450 nm and 570 nm. Absorbance at 570 nm was subtracted from absorbance at 450 nm for each plate.
To assess the ability of undigested fully intact and MMP12 incubated proteins to interact with CD28, binding ELISAs to recombinant human CD28 domain were carried out. In parallel, purified IgG_001 and IgG_002 proteins were used as positive controls while isotype binding was used as negative control.
A general note: In an ELISA, binding on a coated surface is turned into a signal by an enzyme label.

The target of assay [2] is T1, human/cyno recombinant CD28 protein. The assay is described as follows: SPR (Biacore 8K), CD28 captured on an anti-His surface, Fab as analyte, multi-cycle kinetics, 1:1 fit. The protocol: In order to assess the binding of test Fabs to human or mouse CD28 (Acro Biosystems, Newark, USA), multi-cycle kinetic analysis was performed at 25° C. on a Biacore® 8K (serial no. 2724204) HBS-P+ (Cytiva, Marlborough, USA) supplemented with 0.1% BSA (Sigma, Dorset, UK) was used as running buffer as well as for ligand and analyte dilutions. CD28 proteins were diluted to 1.0 μg/mL in running buffer and at the start of each cycle loaded onto Fc2, of a series S CM5 chip (Cytiva, Marlborough, USA) previously coupled with an anti-His capture antibody (Cytiva, Marlborough, USA) using standard amine chemistry. Ligand was captured at a flow rate of 10 μl/min to give an immobilization level (RL) of ~60 RU. The surface was then allowed to stabilize. Multi-cycle kinetic data was obtained antigens as the analyte injected at a flow rate of 30 μl/min to try and minimize any potential mass transfer effects. A 9 point 2-fold dilution of purified Fab titrated from 0.39 nM to 100 nM was prepared in running buffer for Fab proteins. For each concentration, the association phases were monitored for 240 seconds, and the dissociation phase was measured for 900 seconds. Regeneration of the sensor chip surface was conducted between cycles using 10 mM glycine pH 2.1. Multiple repeats of a blank and of antigen were programmed into the kinetic run, in order to check the stability of both the surface and analyte over the kinetic cycles. The signal from the reference Fc1 (no ligand captured) was subtracted from that of Fc2 to correct for bulk effect and differences in non-specific binding to a reference surface. The signal from each blank run (ligand captured but no antigen) was subtracted to correct for differences in surface stability. Binding was analysed using 1:1 binding analysis due to the high affinity interaction between the antibody and antigen. The data was analysed using a procedure referred to as double referencing. This refers to the process of first subtracting the reference channel response (Fc1) and then subtracting the zero concentration sensorgram to compensate for bulk effects, baseline drift and small differences between the reference and the active channel.

Assay [3] addresses T2, mouse CD28 recombinant protein (mouse, UniProt P31041 20-150, limits assumed).
T2 construct: Bought recombinant protein
The assay is described as follows: SPR (Biacore 8K), CD28 captured on an anti-His surface, Fab as analyte. Here is the method: (§2) In order to assess the binding of test Fabs to human or mouse CD28 (Acro Biosystems, Newark, USA), multi-cycle kinetic analysis was performed at 25° C. on a Biacore® 8K (serial no. 2724204) HBS-P+ (Cytiva, Marlborough, USA) supplemented with 0.1% BSA (Sigma, Dorset, UK) was used as running buffer as well as for ligand and analyte dilutions. CD28 proteins were diluted to 1.0 μg/mL in running buffer and at the start of each cycle loaded onto Fc2, of a series S CM5 chip (Cytiva, Marlborough, USA) previously coupled with an anti-His capture antibody (Cytiva, Marlborough, USA) using standard amine chemistry. Ligand was captured at a flow rate of 10 μl/min to give an immobilization level (RL) of ~60 RU. The surface was then allowed to stabilize. Multi-cycle kinetic data was obtained antigens as the analyte injected at a flow rate of 30 μl/min to try and minimize any potential mass transfer effects. A 9 point 2-fold dilution of purified Fab titrated from 0.39 nM to 100 nM was prepared in running buffer for Fab proteins. For each concentration, the association phases were monitored for 240 seconds, and the dissociation phase was measured for 900 seconds. […] Binding was analysed using 1:1 binding analysis due to the high affinity interaction between the antibody and antigen. The data was analysed using a procedure referred to as double referencing. […]
For orientation: SPR reads the build-up and loss of mass on a sensor chip optically.

Assay [4] has as its target T1, human/cyno recombinant CD28 protein. The assay is described as follows: SPR (Biacore 8K, 25 C), CD28 captured by anti-His antibody, Fab as analyte, 1:1 fit; Fab_002. The protocol:
as §2

In assay [5] the target is T2, mouse CD28 recombinant protein. As to the kind of experiment: ELISA on coated mouse CD28, absorbance (blank corrected). The protocol: as §1
Assay [6] concerns the target human CD28 in its native form displayed on the cell surface (human, UniProt P10747 19-220). As to the kind of experiment: cell-based or functional assay.
For assay [7], the target named is T1, human/cyno recombinant CD28 protein. The assay is described as follows: SPR (Biacore 8K, 25 C), CD28 captured by anti-His antibody, Fab as analyte, 1:1 fit; Fab_001 (CD28 TGN derived sequence). Here is the method: as §2

B1: LPD28-3, intact (bispecific antibody, human IgG1, kappa)
heavy: not shown
light: not shown
chain: SCPPCPAPEAAGAPSVFLFPPKPKDTLMISRTPEVTCVVVDVSHEDPEVKFNWYVDGVEVHNAKTKPREEQYNSTYRVVSVLTVLHQDWLNGKEYKCKVSNKALPAPIEKTISKAKGQPREPQVCTLPPSRDELTKNQVSLSCAVKGFYPSDIAVEWESNGQPENNYKTTPPVLDSDGSFFLVSKLTVDKSRWQQGNVFSCSVMHEALHNHYTQKSLSLSPGK
notes: Asymmetric one arm construct: anti-PD-L1 Fab above anti-CD28-2 Fab; also called undigested LPD28-3; LPD28-3 (0 min)
For B1, the binding result in assay [1] is reported as “binds”.

B2: Fab_002 (Fab, V domains shown)
VH: QVQLQQSGAELKKPGASVKVSCKASGYTFTEYIIHWIKLRSGQGLEWIGWFYPGSNDIQYNAQFKGKATLTADKSSSTVYMELTGLTPEDSAVYFCARRDDFSGYDALPYWGQGTLVTVSA
VL: DIQMTQSPSSLSASVGDRVTITCKTNENIYSNLAWYQQKDGKSPQLLIYAATHLVEGVPSRFSGSGSGTQYSLTISSLQPEDFGNYYCQHFWGTPCTFGGGTKLEIKR
notes: also called Anti-CD28-2 Fab
Consider B2, for which, in assay [2], the dissociation constant Kd was found to be 0.532 nM, the koff amounted to 0.000241 s⁻¹ and the kon came out at 454000 M⁻¹ s⁻¹. For the same molecule, in assay [3], the binding result is on record as “no binding”. In assay [4], the Kd came out at 0.53 nM.

B3: IgG_002 (antibody, V domains shown)
VH: B2 VH
VL: B2 VL
notes: also called non superagonist CD28 IgG
Turning to B3, the binding result in assay [5] is listed as “no binding (tested: about 300 nM)”.

B4: IgG_001 (antibody, V domains shown)
VH: QVQLVQSGAEVKKPGASVKVSCKASGYTFTSYYIHWVRQAPGQGLEWIGSIYPGNVNTNYNEKEKDRATLTVDTSISTAYMELSRLRSDDTAVYFCTRSHYGLDWNFDVWGQGTTVTVSS
VL: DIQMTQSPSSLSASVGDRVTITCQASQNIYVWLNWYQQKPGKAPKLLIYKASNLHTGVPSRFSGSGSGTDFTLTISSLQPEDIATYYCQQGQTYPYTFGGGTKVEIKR
notes: also called TGN derived CD28 V domain IgG_001 on IgG1-Fc isotype
B4: the binding result in assay [5] is listed as “no binding (tested: about 300 nM)”. For the same molecule, in assay [6], the “mean IL2 secretion, PBMC of 20 donors on plate-coated protein, 72 h” value is around 2000 pg/mL.

B5: Anti-CD28 Fab-001 (Fab, V domains shown)
VH: B4 VH
VL: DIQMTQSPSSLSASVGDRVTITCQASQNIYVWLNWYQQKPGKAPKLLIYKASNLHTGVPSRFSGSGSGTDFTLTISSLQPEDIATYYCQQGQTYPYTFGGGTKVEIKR
notes: Monovalent Fab
Take B5: in assay [2], the Kd amounted to 0.593 nM, the koff amounted to 0.00027 s⁻¹ and the association rate constant (kon) came out at 455000 M⁻¹ s⁻¹. Further, the binding result in assay [3] is “no binding”. For the same molecule, in assay [7], the Kd worked out at 0.59 nM.
